Assay results as given in patent US20240166765A1 (ICONIC THERAPEUTICS, published 2024).

T1: cynomolgus TF ECD-His6 (cynomolgus monkey (Macaca fascicularis))
T1 construct: made in Expi293 cells; also called TF-His; cTF
T1 chain: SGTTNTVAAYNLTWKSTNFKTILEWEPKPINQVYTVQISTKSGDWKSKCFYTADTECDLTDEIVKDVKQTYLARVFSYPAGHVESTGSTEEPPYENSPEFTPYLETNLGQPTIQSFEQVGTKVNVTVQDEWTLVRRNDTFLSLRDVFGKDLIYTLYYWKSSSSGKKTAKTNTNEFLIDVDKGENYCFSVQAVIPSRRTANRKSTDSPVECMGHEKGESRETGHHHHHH

T2: pig TF-His (pig (Sus scrofa))
T2 construct: also called pig TF ECD-His; pTF
T2 chain: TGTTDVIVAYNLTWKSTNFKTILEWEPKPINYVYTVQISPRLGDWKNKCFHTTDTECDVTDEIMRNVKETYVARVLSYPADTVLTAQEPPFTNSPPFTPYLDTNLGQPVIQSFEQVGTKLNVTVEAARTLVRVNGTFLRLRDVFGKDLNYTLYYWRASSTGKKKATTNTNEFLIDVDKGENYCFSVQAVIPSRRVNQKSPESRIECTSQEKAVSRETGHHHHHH

B1: 43B1 (antibody, human IgG1, V domains shown)
VH: QVQLQESGPGLVKPSQTLSLTCTVSGGSISSGQYWSWIRQHPGKGLEWIGEIYYSGSTRYNPSLKSRVTISVDTSKNQFSLKLSSVTAADTAVYYCARDAPYYYGGGYYYYMDVWGKGTTVTVSS
VL: EIVLTQSPGTLSLSPGERATLSCRASESVDSSYLAWYQQKPGQAPRLLIYGASTRQTGIPDRFSGSGSGTDFTLTISRLEPEDFAVYYCQQAGVVPYTFGGGTKVEIK
notes: human IgG1
B2: 5G9 (antibody, V domains shown)
VH: QVQLVESGGGVVQPGRSLRLSCKASGFNIKDYYMHWVRQAPGKGLEWIGLIDPENGNTIYDPKFQGRFTISADNSKNTLFLQMDSLRPEDTAVYYCARDNSYYFDYWGQGTPVTVSS
VL: DIQMTQSPSSLSASVGDRVTITCKASQDIRKYLNWYQQKPGKAPKLLIYYATSLADGVPSRFSGSGSGTDYTFTISSLQPEDIATYYCLQHGESPYTFGQGTKLEIT
B3: TF-011 (antibody, V domains shown)
VH: EVQLLESGGGLVQPGGSLRLSCAASGFTFSNYAMSWVRQAPGKGLEWVSSISGSGDYTYYTDSVKGRFTISRDNSKNTLYLQMNSLRAEDTAVYYCARSPWGYYLDSWGQGTLVTVSS
VL: DIQMTQSPPSLSASAGDRVTITCRASQGISSRLAWYQQKPEKAPKSLIYAASSLQSGVPSRFSGSGSGTDFTLTISSLQPEDFATYYCQQYNSYPYTFGQGTKLEIK
notes: previously described anti-TF antibody
B4: 43D (antibody, V domains shown)
VH: QVQLQQWGAGLLKPSETLSLTCAVYGGSLSGYYWSWIRQPPGKGLEWIGEIGASGSTRYNPSLKSRVTISVDTSKNQFSLKLSSVTAADTAVYYCARDTPYYYEGGYYYYMDVWGKGTTVTVSS
VL: EIVLTQSPGTLSLSPGERATLSCRASQSVSSSYLAWYQQKPGQAPRLLIYGASSRATGIPDRFSGSGSGTDFTLTISRLEPEDFAVYYCQQVGVVPYTFGGGTKVEIK
B5: 25A5 (antibody, human IgG1, kappa, V domains shown)
VH: QVQLVQSGAEVKKPGASVKVSCKASGYTFDVYGISWVRQAPGQGLEWMGWIAPYSGNTNYAQKLQGRVTMTTDTSTSTAYMELRSLRSDDTAVYYCARDAGTYSPFGYGMDVWGQGTTVTVSS
VL: DIQMTQSPSTLSASVGDRVTITCRASESISNWLAWYQQKPGKAPKLLIYKAYSLEYGVPSRFSGSGSGTEFTLTISSLQPDDFATYYCQQFQKLPPFTFGGGTKVEIKR
notes: human IgG1
B6: 25A5-T (antibody, human IgG1, kappa, V domains shown)
VH: QVQLVQSGAEVKKPGASVKVSCKASGYTFDAYGISWVRQAPGQGLEWMGWIAPYSGNTNYAQKLQGRVTMTTDTSTSTAYMELRSLRSDDTAVYYCARDAGTYSPFGYGMDVWGQGTTVTVSS
VL: DIQMTQSPSTLSASVGDRVTITCRASESISNWLAWYQQKPGKAPKLLIYKAYSLEYGVPSRFSGSGSGTEFTLTISSLQPDDFATYYCQQFQKLPPFTFGGGTKVEIKR
notes: human IgG1
B7: 25G (antibody, human IgG1, kappa, V domains shown)
VH: QVQLVQSGAEVKKPGASVKVSCKASGYTFRSYGISWVRQAPGQGLEWMGWVAPYNGNTNYAQKLQGRVTMTTDTSTSTAYMELRSLRSDDTAVYYCARDAGTYSPYGYGMDVWGQGTTVTVSS
VL: DIQMTQSPSTLSASVGDRVTITCRASQSISSWLAWYQQKPGKAPKLLIYKASSLESGVPSRFSGSGSGTEFTLTISSLQPDDFATYYCQQFQSLPPFTFGGGTKVEIKR
notes: human IgG1
B8: 29E (antibody, human IgG1, V domains shown)
VH: QVQLVESGGGVVQPGRSLRLSCAASGFTFRSYGMHWVRQAPGKGLEWVAVITYDGINKYYADSVEGRFTISRDNSKNTLYLQMNSLRAEDTAVYYCARDGVYYGVYDYWGQGTLVTVSS
VL: not shown
notes: human IgG1
B9: 25A3 (antibody, human IgG1, kappa, V domains shown)
VH: QVQLVQSGAEVKKPGASVKVSCKASGYTFDVYGISWVRQAPGQGLEWMGWIAPYSGNTNYAQKLQGRVTMTTDTSTSTAYMELRSLRSDDTAVYYCARDAGTYSPFGYGMDVWGQGTTVTVSS
VL: DIQMTQSPSTLSASVGDRVTITCQASQSINNWLAWYQQKPGKAPKLLIYKAYNLESGVPSRFSGSGSGTEFTLTISSLQPDDFATYYCQLFQSLPPFTFGGGTKVEIKR
notes: Human IgG1; also called antibody 25A3
B10: 43B (antibody, human IgG1, V domains shown)
VH: QVQLQESGPGLVKPSQTLSLTCTVSGGSISSGQYWSWIRQHPGKGLEWIGEIYYSGSTRYNPSLKSRVTISVDTSKNQFSLKLSSVTAADTAVYYCARDAPYYYGGGYYYYMDVWGKGTTVTVSS
VL: EIVLTQSPGTLSLSPGERATLSCRASQSVSSSYLAWYQQKPGQAPRLLIYGASSRATGIPDRFSGSGSGTDFTLTISRLEPEDFAVYYCQQVGVVPYTFGGGTKVEIK
notes: human IgG1
B11: 43B7 (antibody, human IgG1, V domains shown)
VH: QVQLQESGPGLVKPSQTLSLTCTVSGGSISSGQYWSWIRQHPGKGLEWIGEIYYSGSTRYNPSLKSRVTISVDTSKNQFSLKLSSVTAADTAVYYCARDAPYYYGGGYYYYMDVWGKGTTVTVSS
VL: EIVLTQSPGTLSLSPGERATLSCRASESVDSSYLAWYQQKPGQAPRLLIYGADSRATGIPDRFSGSGSGTDFTLTISRLEPEDFAVYYCQQDGVVPYTFGGGTKVEIK
notes: human IgG1
B12: 43D (antibody, human IgG1, V domains shown)
VH: QVQLQQWGAGLLKPSETLSLTCAVYGGSLSGYYWSWIRQPPGKGLEWIGEIGASGSTRYNPSLKSRVTISVDTSKNQFSLKLSSVTAADTAVYYCARDTPYYYEGGYYYYMDVWGKGTTVTVSS
VL: EIVLTQSPGTLSLSPGERATLSCRASQSVSSSYLAWYQQKPGQAPRLLIYGASSRATGIPDRFSGSGSGTDFTLTISRLEPEDFAVYYCQQVGVVPYTFGGGTKVEIK
notes: human IgG1
B13: 54E (antibody, human IgG1, V domains shown)
VH: QVQLVQSGAEVKKPGASVKVSCKASGYTFANYYMHWVRQAPGQGLEWMGIINPSGGITVYAQKFQGRVTMTRDTSTSTVYMELSSLRSEDTAVYYCARGGSKVAALAFDIWGQGTMVTVSS
VL: DIQMTQSPSSLSASVGDRVTITCQASQDISNSLNWYQQKPGKAPKLLIYDASNLETGVPSRFSGSRSGTDFTFTISSLQPEDIATYYCQQYNFHPLTFGGGTKVEIK
notes: human IgG1
B14: M1593 (antibody, V domains shown)
VH: EVQLVQSGAEVKKPGESLRISCKGSGYTFAPYWIEWVRQMPGKGLEWMGDILPGTGFTTYSPSFQGHVTISADKSISTAYLQWSSLKASDTAMYYCARSGYYGNSGFAYWGQGTLVTVSS
VL: DIVMTQTPLSLPVTPGEPASISCKSSQSLLSSGNQKNYLTWYLQKPGQSPQLLIYWASTRESGVPDRFSGSGSGTDFTLKISRVEAEDVGVYYCQNDYTYPLTFGQGTKLEIK
notes: also called 10H10; 10H10 (M1593)

Columns and labels:
mouse TF ECD-His6 = molecular target: T3, mouse TF ECD-His6 (mouse, UniProt P20352 29-251); test: BLI (ForteBio Octet)
T3 construct: made in Expi293 cells; also called TF-His; mTF

relipidated TF [1] = molecular target: T4, relipidated TF (UniProt P13726 33-295, limits assumed); test: cell-based or functional assay
relipidated TF [2] = molecular target: T4, relipidated TF; test: cell-based or functional assay; remark: listed apart in the source
[3] = molecular target: rTF (rat TF) on HEK293 cells (rat, UniProt P42533 29-252); test: live cell staining of transfected HEK293, flow cytometry
[4] = molecular target: T5, human Tissue Factor on MDA-MB-231 cells (human, UniProt P13726 33-295); test: cell-based or functional assay
[5] = molecular target: T5, human Tissue Factor on MDA-MB-231 cells; test: cell-based or functional assay; remark: listed apart in the source
human TF ECD-His6 [6] = molecular target: T6, human TF ECD-His6 (human, UniProt P13726 33-251); test: BLI (ForteBio Octet)
T6 construct: made in Expi293 cells; the entry holds the ECD with the C-terminal TG-His6; also called TF-His; hTF

human TF ECD-His6 [7] = molecular target: T6, human TF ECD-His6; test: SPR (Biacore), antibody on chip, TF-His titrated
cynomolgus TF ECD-His6 [8] = molecular target: T1, cynomolgus TF ECD-His6; test: SPR (Biacore), antibody on chip, TF-His titrated
cynomolgus TF ECD-His6 [9] = molecular target: T1, cynomolgus TF ECD-His6; test: BLI (ForteBio Octet)
pig TF-His = molecular target: T2, pig TF-His; test: SPR (Biacore), antibody captured by anti-human IgG on CM5 chip, pig TF-His in solution, 1:1 model

Sequence of rTF (rat TF) on HEK293 cells (P42533 29-252): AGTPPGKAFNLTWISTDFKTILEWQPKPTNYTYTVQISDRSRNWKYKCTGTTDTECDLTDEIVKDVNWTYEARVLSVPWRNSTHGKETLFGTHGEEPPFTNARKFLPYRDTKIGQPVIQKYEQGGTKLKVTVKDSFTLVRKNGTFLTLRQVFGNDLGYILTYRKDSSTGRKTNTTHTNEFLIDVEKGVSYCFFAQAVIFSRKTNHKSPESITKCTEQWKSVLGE

Binder | Kd (mouse TF ECD-His6) [nM] | binding result [3] | Kd (human TF ECD-His6 [6]) [nM] | Kd (human TF ECD-His6 [7]) [nM] | Kd (cynomolgus TF ECD-His6 [8]) [nM] | Kd (cynomolgus TF ECD-His6 [9]) [nM] | also measured
B1 | 72.1 |  |  |  |  |  | TGA without pre-incubation, 10 nM Ab: % Peak IIa (relipidated TF [1]): 87%; TGA without pre-incubation, 10 nM Ab: ETP (relipidated TF [1]): 2290 nM·min; TGA without pre-incubation, 10 nM Ab: Lag Time (relipidated TF [1]): 4.9 min; TGA without pre-incubation, 10 nM Ab: Peak IIa (relipidated TF [1]): 299 nM; TGA without pre-incubation, 10 nM Ab: ttPeak (relipidated TF [1]): 8.9 min; TGA without pre-incubation, 50 nM Ab: ETP (relipidated TF [1]): 2200 nM·min; TGA without pre-incubation, 50 nM Ab: Lag Time (relipidated TF [1]): 5.2 min; TGA without pre-incubation, 50 nM Ab: Peak IIa (relipidated TF [1]): 232 nM; TGA without pre-incubation, 100 nM Ab: ETP (relipidated TF [1]): 2170 nM·min; TGA without pre-incubation, 100 nM Ab: Lag Time (relipidated TF [1]): 5.2 min; TGA without pre-incubation, 100 nM Ab: Peak IIa (relipidated TF [1]): 221 nM
B2 |  |  |  |  |  |  | decrease of peak IIa concentration, TGA with 10 min pre-incubation, 100 nM Ab (relipidated TF [2]): 92%; decrease of peak IIa concentration, TGA without pre-incubation, 100 nM Ab (relipidated TF [2]): 92%
B3 |  | no binding (tested: 15 µg/ml (100 nM)) |  |  |  |  | decrease of peak IIa concentration, TGA with 10 min pre-incubation, 100 nM Ab (relipidated TF [2]): 91%; decrease of peak IIa concentration, TGA without pre-incubation, 100 nM Ab (relipidated TF [2]): 91%
B4 |  |  |  |  |  |  | % IL8, 2.56 nM Ab [4]: 58%; % IL8, 6.4 nM Ab [4]: 21%; % IL8, 40 nM Ab [4]: 5%; % IL8, 100 nM Ab [4]: 5%; % FXa, 25 nM Ab [5]: 109%
B5 | 188 |  | 0.64 | 0.08 | 0.04 |  | 
B6 |  | no binding (tested: 15 µg/ml (100 nM)) |  |  |  |  | 
B7 | 114 |  | 21.9 | 23 | 18 | 17.5 | 
B8 |  | no binding (tested: 15 µg/ml (100 nM)) | 2.32 | 0.47 | 5.06 | 15 | 
B9 |  |  |  |  |  |  | Kd (pig TF-His): 5.5 nM
B10 | 161 |  | 2.4 | 1.75 | 5.64 | 3.4 | 
B11 | 360 |  | 0.86 | 0.14 | 0.24 | 0.94 | 
B12 | 281 |  | 3.84 | 2.09 | 5.66 | 4.12 | 
B13 |  | no binding (tested: 15 µg/ml (100 nM)) | 1.59 | 0.42 | 1.83 | 4.16 | 
B14 |  | no binding (tested: 15 µg/ml (100 nM)) |  |  |  |  | 
